Assay results from US8741844B2, “Use of mutated antithrombins for treating or preventing coagulation disorders” (Universite Paris-Sud XI, priority 2007, dated 2014).
Changes are numbered by the printed parent chain. Names may count otherwise. Blank lines part the entries; values can stand above or below the molecule they belong to.

What was measured:
[1] = tested on: pentasaccharide bound plasma antithrombin (plasma anti-factor Xa activity); assay: Rotachrom heparin anti factor Xa assay in pentasaccharide containing human plasma (competition with plasma antithrombin for pentasaccharide binding); assay type: biochemical; details: for virtual pentasaccharide concentration (residual anti-factor Xa activity): human plasma pool with 3 μg/ml pentasaccharide; for effect on anti-Xa activity of pentasaccharide containing plasma sample: human plasma, pre-incubation 30 min at 37° C.
Description: Anti factor Xa inhibitory activity of mutated antithrombins AT-R393H(SEQ ID NO: 4), AT-Pro394 (SEQ ID NO: 6), AT-ΔR393-5394 (SEQ ID NO: 18), AT-ΔR393 (SEQ ID NO: 8), AT-ΔS394 (SEQ ID NO: 10), AT-N135Q-R393H(SEQ ID NO: 14), AT-N135Q-Pro394 (SEQ ID NO: 16), AT-N135Q-ΔR393-S394 (SEQ ID NO: 24), AT-N135Q-ΔR393 (SEQ ID NO: 20), AT-N135Q-ΔS394 (SEQ ID NO: 22) is measured in pentasaccharide containing plasma. The plasma concentrations of pentasaccharides are defined on the basis on those measured in patients treated by the pentasaccharide under the conditions of a regular (curative) use of this molecule or in patients presenting an overdose of this drug, knowing that the optimal equilibrium concentration is 1.20-1.26 mg/L and the minimal equilibrium concentration is 0.46-0.62 mg/L during a curative pentasaccharide treatment (monograph, Arixtra®).
The anti factor Xa assay is performed using the Rotachrom® heparin method (Stago) adaptated for absorbance reading on a microplate reader (Dynatech MR 5000), or a STA analyser (Stago).
The procedure consists in mixing 30 μl of pentasaccharide containing plasma sample diluted four times in kinetic buffer, with 75 μl of chromogenic substrate (1 mM, provided in Rotachrom® heparin kit). After 4 min incubation, 75 μl of bovine factor Xa (24 nM, Rotachrom® heparin kit) is added to the plasma-substrate mixture. The factor Xa activity is measured a 405 nm absorbance increase, resulting from cleavage of the chromogenic substrate, using a microplate reader (Dynatech MR 5000). The rate constant (k), proportional to anti-factor Xa activity, is obtained by fitting the substrate hydrolysis curve to equation (3) or (3′).
Firstly, the assay is calibrated in citrated (0.105 M) normal human plasma containing pentasaccharide concentrations ranging from 0 to 3 mg/L. A standard curve is generated and anti-factor Xa activity is expressed as mg of pentasaccharide per liter of plasma.
Secondly, to evaluate the anti factor Xa inhibitory activity of mutated antithrombins, the mutated antithrombin (0-0.6 g/L, preferably 0.15-0.6 g/L, final concentration, in kinetic buffer) is pre-incubated with an equal volume of pentasaccharide (0-3 mg/L, preferably 1-3 mg/L) containing plasma samples, during 30 min at 37° C.
Under these conditions, the mutated antithrombin concentration range from one to four times that of the plasma antithrombin level, which is compatible with a therapeutic use of antithrombin. Indeed, very high doses of mutated antithrombin, with a 5 fold increase in plasma antithrombin level, have already been used during clinical trials without side effects (Leitner J M, Firbas C, Mayr F B, Reiter R A, Steinlechner B, Jilma B., Recombinant human antithrombin inhibits thrombin formation and interleukin 6 release in human endotoxemia. Clin Pharmacol Ther. 2006 January; 79(1):23-34). Anti factor Xa inhibitory activity is then evaluated as previously described.
To estimate whether mutated antithrombin can be used as reversal of pentasaccharide in case of over-dosing, AT-N135Q-R393H(SEQ ID NO: 14) and AT-N135Q-Pro394 (SEQ ID NO: 16) are tested in Rotachrom® heparin assay for their ability to restore factor Xa activity. Under conditions of treatment for prevention of venous thromboembolic events, optimal pentasaccharide concentration ranges between 1.2 and 1.26 μg/mL in plasma. To mimic an over-dosing, pentasaccharide is added to human plasma pool at concentration of 3 μg/ml. Rotachrom® heparin assay is then performed by incubation of plasma over-dosed with pentasaccharide in the presence of mutated antithrombin in a ratio 1/1, 2/1, and 4/1 compared to plasma antithrombin concentration (i.e. 0.15, 0.3, 0.6 g/l). In this ex vivo assay, anti-factor Xa activity is proportional to the amount of pentasaccharide bound natural antithrombin present in tested plasma, which amount is directly proportional to pentasaccharide concentration in plasma. […]

[2] = tested on: plasma anti FXa activity in mice treated with pentasaccharide; assay: Murine model: mutated antithrombins as antidotes of fondaparinux, plasma anti FXa activity; assay type: in vivo, mouse; details: injection of mutated antithrombin after fondaparinux
Description: The efficiency of the mutated antithrombins AT-R393H(SEQ ID NO: 4), AT-Pro394 (SEQ ID NO: 6), AT-ΔR393-S394 (SEQ ID NO: 18), AT-ΔR393 (SEQ ID NO: 8), AT-ΔS394 (SEQ ID NO: 10), AT-N135Q-R393H(SEQ ID NO: 14), AT-N135Q-Pro394 (SEQ ID NO: 16), AT-N135Q-ΔR393-S394 (SEQ ID NO: 24), AT-N135Q-ΔR393 (SEQ ID NO: 20), AT-N135Q-A5394 (SEQ ID NO: 22) as antidotes is evaluated in a murine model.
The different drugs to be tested (fondaparinux, low molecular weight heparin, full length heparin and the mutated antithrombins) are administrated by intra-venous injection in the caudal vein to avoid the variability encountered when administration is performed subcutaneously. However, Heparin derivatives (fondaparinux, low molecular weight heparin and full length heparin) could also be administrated subcutaneously.
The blood is collected by punction in cave vein into tubes containing 0.105 mol/L trisodium citrate (1:10). Platelet-poor plasma is obtained by centrifugation at 2300 g for 10 minutes at 12° C. and stored at −80° C. until use.
The following elements are determined: • the doses of fondaparinux inducing an overdose in mice, • the mutated antithrombins time course, and in particular the time required to observe a maximal biological effect, • the minimal doses of mutated antithrombins necessary to neutralize fondaparinux.
For each of these experiments, 4 groups of 5 mice each are used: • In the first group mice receive fondaparinux vehicle and then antidote (mutated antithrombin) vehicle. • In the second group, mice receive fondaparinux and then antidote vehicle • In the third group, mice receive fondaparinux vehicle and then antidote • In the last group, mice receive fondaparinux and then antidote
Anti FXa activity measurements is performed as previously described using a Stachrom Heparin® kit on a STA (Stago, France) or a Rotachrom Heparin® kit with procedure adapted for measurement in microplate reader (Dynatech MR 5000). A calibration curve with pentasaccharide is performed, allowing the expression of the results in nmol/ml (or in mg/L) of plasma.
Thus, the antidote (mutated antithrombins) is administered intravenously, 5 min after the intra-venous injection of the fondaparinux, and 5, 15 or 30 min after the subcutaneous injection of the fondaparinux.
The mutated antithrombin time course is studied by measuring the plasma anti-Xa activity 5 min, 10 min, 20 min and 40 min after the antidote administration.
Once the time of action determined, a dose response curve is performed in vivo to determine the dose of antidote necessary to obtain a decrease in Fondaparinux plasma concentration within the therapeutic range around 1.2 nmol/ml (or 2 mg/L), or around 0.7 nmol/ml (or 1.2 mg/L).

[3] = mutated antithrombin ratio 1/1 to plasma antithrombin (0.15 g/l)

Molecule: AT-N135Q-R393H: human antithrombin with substitution at 393 by Histidine and at 135 by Glutamine
- virtual pentasaccharide concentration (residual anti-factor Xa activity) [1, 3]: 1.04 µg/mL
- virtual pentasaccharide concentration (residual anti-factor Xa activity) ([1]; ratio 2/1 (0.3 g/l)): 0.49 µg/mL
- virtual pentasaccharide concentration (residual anti-factor Xa activity) ([1]; ratio 4/1 (0.6 g/l)): 0.29 µg/mL
- effect on anti-Xa activity of pentasaccharide containing plasma sample [1]: significant decrease
- plasma anti FXa activity in mice treated with pentasaccharide [2]: significant decrease

- effect on anti-Xa activity of pentasaccharide containing plasma sample [1]: significant decrease
Molecule: AT-R393H: human antithrombin (SEQ ID NO:2) with substitution of the amino acid at position 393 by Histidine
- plasma anti FXa activity in mice treated with pentasaccharide [2]: significant decrease

- effect on anti-Xa activity of pentasaccharide containing plasma sample [1]: significant decrease
B1: AT-N135Q-ΔR393: human antithrombin with deletion of position 393 and substitution at 135 by Glutamine (protein, listed as Homo sapiens)
chain: HGSPVDICTAKPRDIPMNPMCIYRSPEKKATEDEGSEQKIPEATNRRVWELSKANSRFATTFYQHLADSKNDNDNIFLSPLSISTAFAMTKLGACNDTLQQLMEVFKFDTISEKTSDQIHFFFAKLNCRLYRKAQKSSKLVSANRLFGDKSLTFNETYQDISELVYGAKLQPLDFKENAEQSRAAINKWVSNKTEGRITDVIPSEAINELTVLVLVNTIYFKGLWKSKFSPENTRKELFYKADGESCSASMMYQEGKFRYRRVAEGTQVLELPFKGDDITMVLILPKPEKSLAKVEKELTPEVLQEWLDELEEMMLVVHMPRFRIEDGFSLKEQLQDMGLVDLFSPEKSKLPGIVAEGRDDLYVSDAFHKAFLEVNEEGSEAAASTAVVIAGSLNPNRVTFKANRPFLVFIREVPLNTIIFMGRVANPCVK
- plasma anti FXa activity in mice treated with pentasaccharide [2]: significant decrease

- effect on anti-Xa activity of pentasaccharide containing plasma sample [1]: significant decrease
B2: AT-N135Q-ΔS394: human antithrombin with deletion of position 394 and substitution at 135 by Glutamine (protein, listed as Homo sapiens)
chain: B1 chain with S393R
- plasma anti FXa activity in mice treated with pentasaccharide [2]: significant decrease

- virtual pentasaccharide concentration (residual anti-factor Xa activity) [1, 3]: 1.16 µg/mL
- virtual pentasaccharide concentration (residual anti-factor Xa activity) ([1]; ratio 2/1 (0.3 g/l)): 0.59 µg/mL
- virtual pentasaccharide concentration (residual anti-factor Xa activity) ([1]; ratio 4/1 (0.6 g/l)): 0.36 µg/mL
- effect on anti-Xa activity of pentasaccharide containing plasma sample [1]: significant decrease
B3: AT-N135Q-Pro394: human antithrombin with Proline inserted between 393 and 394 and substitution at 135 by Glutamine (protein, listed as Homo sapiens)
chain: HGSPVDICTAKPRDIPMNPMCIYRSPEKKATEDEGSEQKIPEATNRRVWELSKANSRFATTFYQHLADSKNDNDNIFLSPLSISTAFAMTKLGACNDTLQQLMEVFKFDTISEKTSDQIHFFFAKLNCRLYRKAQKSSKLVSANRLFGDKSLTFNETYQDISELVYGAKLQPLDFKENAEQSRAAINKWVSNKTEGRITDVIPSEAINELTVLVLVNTIYFKGLWKSKFSPENTRKELFYKADGESCSASMMYQEGKFRYRRVAEGTQVLELPFKGDDITMVLILPKPEKSLAKVEKELTPEVLQEWLDELEEMMLVVHMPRFRIEDGFSLKEQLQDMGLVDLFSPEKSKLPGIVAEGRDDLYVSDAFHKAFLEVNEEGSEAAASTAVVIAGRPSLNPNRVTFKANRPFLVFIREVPLNTIIFMGRVANPCVK
- plasma anti FXa activity in mice treated with pentasaccharide [2]: significant decrease
